This passage reports amyloid nucleation score results from the supplement of paper PMC12042874.

± gives the uncertainty stated by the source.

This data set can be described thus: amyloid nucleation score (Sup35N fusion, yeast selection) (log enrichment); library NNK3; higher = more nucleation; inactive = no reads after selection. An outline of the steps:
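The nucleation score, computed with DiMSum, is the log enrichment of output over input reads, centred on the mode score of non-aggregating sequences. Sequences with under 100 input reads were dropped. Reads were generated by Illumina sequencing of plasmid inserts from psi-negative yeast with Sup35N fused to peptides of 20 random codons, induced with 100 μM copper sulfate for 24 hours and grown 7 days at 30°C on medium lacking adenine and uracil.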
As to IARSREI, the amyloid nucleation score entry was “inactive”.

For the substance IATTDIYAAYFYSLMQAIYR, the amyloid nucleation score entry was “inactive”.

As to IAYNMCEIYVRVCYYFPIIC, the amyloid nucleation score result is “inactive”.

In the case of ICAVFWDCMISRSCDTALYS, the amyloid nucleation score entry is “inactive”.

Consider ICCTSS, for which the amyloid nucleation score result was “inactive”.

For ICLCLHCIYSRSITSAVLSA, the amyloid nucleation score entry is “inactive”.

Substance ICNIYCCCQG yielded an amyloid nucleation score of 2.6 ± 0.069.

In the case of ICRRPYFSHLRSHRGFQNTD, the amyloid nucleation score entry was “inactive”.

In turn, ICSGTSH showed an amyloid nucleation score of -0.268 ± 0.6.

On to ICSII, for which the amyloid nucleation score result was “inactive”.

ICSLCEHSFVRVNGMYWHRE showed an amyloid nucleation score of 2.02 ± 0.092.

With ICTDGVHGCMVGS, the amyloid nucleation score result was “inactive”.

ICVCEQSTVVYTKELSTFGA gave an amyloid nucleation score of 0.012 ± 0.27.

As for ICWMRDTTVVGFRWV, the amyloid nucleation score is -0.07 ± 0.96.

On to IDLRC, for which the amyloid nucleation score entry was “inactive”.

IDRSLLSGFSNLHICSICCT showed an amyloid nucleation score of 1.2 ± 0.12.

For IDVRGSMYGVMMYHSTRDVT, the amyloid nucleation score entry is “inactive”.

Turning to IEAEHYCLLLVFLQVGLSSA, the amyloid nucleation score result is “inactive”.

For IEGEYLVASAWRFLQSKHAH, the amyloid nucleation score result is “inactive”.

As for IEKASACNG, the amyloid nucleation score result was “inactive”.

Consider IEQGGI, for which the amyloid nucleation score result was “inactive”.

The substance IERGSDFLLHAMAYSFIGCL yielded an amyloid nucleation score of -0.416 ± 1.1.

For IETAGSTHSSTWGDYSNRLC, the amyloid nucleation score result was “inactive”.

As for IEVVYNLFWSRTFGAFVTKV, the amyloid nucleation score result was “inactive”.

For IFCAPRAEVSGSYYRGNVSV, the amyloid nucleation score result is “inactive”.

Take IFFVRSDAFKFSILSVNASL: the amyloid nucleation score was -0.37 ± 0.56.

With IFGFDYIAPFFCVTFGIRRV, the amyloid nucleation score result is “inactive”.

In the case of IFLVVPGHDLWNCRRS, the amyloid nucleation score result was “inactive”.

Regarding IFNLMFYFVVRNE, the amyloid nucleation score stood at 3.01 ± 0.071.

For the substance IFSFTLSLSFGVFLNMFSVD, the amyloid nucleation score entry is “inactive”.

On to IFSLLPVDILVTLY, for which the amyloid nucleation score result is “inactive”.

Turning to IFTLCITGGV, the amyloid nucleation score result was “inactive”.

In turn, IFVLVYNISSNTGNYSIGFV came in with an amyloid nucleation score of 0.934 ± 0.15.

IFVNWMVISVGLARFDVINA: the amyloid nucleation score is -0.579 ± 0.69.

As to IFVWYMNVSCGMVDRYGLPM, the amyloid nucleation score result was “inactive”.

As for IFWICWLGFVNCVYTAEIPT, the amyloid nucleation score result was “inactive”.

As to IGFFEFIKELITWKILS, the amyloid nucleation score result was “inactive”.

IGFGSWFSKVSPNVEFVGAL: the amyloid nucleation score result is “inactive”.

Regarding IGRAIVHWYWFSSL, the amyloid nucleation score result is “inactive”.

Regarding IGVKSYWLRRSYLLFKYWMV, the amyloid nucleation score result was “inactive”.

For IHCGACYSACWVRLGAWMTC, the amyloid nucleation score result was “inactive”.

As to IHFNWLIYITNTYVRRIFRC, the amyloid nucleation score result is “inactive”.

With IHLSCMIIKRHLSRYCDQSR, the amyloid nucleation score result was “inactive”.

Take IHLTCLWVYQDLLV: the amyloid nucleation score entry is “inactive”.

For IHRNEYMMRKKDRILQNLAV, the amyloid nucleation score result was “inactive”.

IHVMSWKQSYSI: the amyloid nucleation score was 0.949 ± 0.15.

For IHYPKCVAGLCSRSLCTAVV, the amyloid nucleation score entry was “inactive”.

In the case of IIEPYTFCFRICVWGGEWIV, the amyloid nucleation score result was “inactive”.

Consider IIFWNICPAYCYL, for which the amyloid nucleation score turned out to be 2.29 ± 0.059.

On to IIGWASWCVGKGHLTFCQLV, for which the amyloid nucleation score entry was “inactive”.

As for IIIFWLFLSGEIDECNNCAV, the amyloid nucleation score result was “inactive”.

For the substance IIKWSCYNLSLYHTKCKDAE, the amyloid nucleation score result is “inactive”.

As to IIMLTFQVNVTFASVWRTRS, the amyloid nucleation score result was “inactive”.

Substance IIRAFDTYVCCKFGNCSVHM yielded an amyloid nucleation score of 2.59 ± 0.052.

On to IISCYTNKMIVVTWCYPLRR, for which the amyloid nucleation score is 0.116 ± 0.19.

On to IIYMMLYVKEGMSWTSLPDQ, for which the amyloid nucleation score result was “inactive”.

In the case of IIYPLMKAWISDMLMVISIS, the amyloid nucleation score result is “inactive”.

In the case of IKAGTEVVFRTSDLFMTMLQ, the amyloid nucleation score result is “inactive”.

As to IKFHW, the amyloid nucleation score result is “inactive”.

On to IKIMFLTAVYVMVGLQIIAT, for which the amyloid nucleation score entry is “inactive”.

Take IKLVDLPCSLVNTGSTVNRE: the amyloid nucleation score entry was “inactive”.

IKSGFW: the amyloid nucleation score entry is “inactive”.

Turning to IKTGYSTHDPNHVDNTIRSR, the amyloid nucleation score result is “inactive”.

With ILARYLDIYMSSVPVEWVTK, the amyloid nucleation score result was “inactive”.

As to ILCFGLLN, the amyloid nucleation score result was “inactive”.

Consider ILFTYCSYINREVLRWMQDS, for which the amyloid nucleation score result was “inactive”.

As for ILGRSSISFDLM, the amyloid nucleation score result was “inactive”.

Substance ILIWRSGCYWTSPTEGVFRF showed an amyloid nucleation score of 0.572 ± 0.2.

ILNMAVGALWGLMIWSVMLF: the amyloid nucleation score entry was “inactive”.

As to ILNTVIGSQLDELPVAAFSS, the amyloid nucleation score result is “inactive”.

ILQKQVTTRLSINSENLHL came in with an amyloid nucleation score of 0.256 ± 0.21.

For the substance ILRHKCDEQPVRVSGHCFA, the amyloid nucleation score result was “inactive”.

Consider ILRNRNDIQNAYCRNKY, for which the amyloid nucleation score entry was “inactive”.

As to ILRYLSIVPRNFYRCYGHFG, the amyloid nucleation score entry is “inactive”.

For ILSKVNSKSDKRSF, the amyloid nucleation score result is “inactive”.

Consider ILSLSQMNT, for which the amyloid nucleation score result is “inactive”.

As to ILSRRLRLQLLFDFYNCLCG, the amyloid nucleation score result is “inactive”.

Consider ILSSKSTNENVSYFLLKM, for which the amyloid nucleation score was 0.794 ± 0.099.

ILVCESV: the amyloid nucleation score result was “inactive”.

Consider ILVKIVSWVHLKRTVGTDQD, for which the amyloid nucleation score entry was “inactive”.

ILVSFVVGTNLLWGDASVRW had an amyloid nucleation score of 0.236 ± 0.48.

In the case of ILWFMDGMIRSRGVPLGDGC, the amyloid nucleation score entry was “inactive”.

On to ILYICHINKGVGGQIGVMAV, for which the amyloid nucleation score result was “inactive”.

In the case of ILYSGVIILYSFYIRRPMVL, the amyloid nucleation score entry is “inactive”.

For IMCYLSITRWKDM, the amyloid nucleation score result was “inactive”.

For the substance IMELLQV, the amyloid nucleation score entry is “inactive”.

As to IMIYSQPKGEASCFGCFRLG, the amyloid nucleation score is 0.702 ± 0.17.

As for IMKCICVYVFINCHKWDVHA, the amyloid nucleation score result was “inactive”.

As for IMKFDSRAYNGYMQMIRPGV, the amyloid nucleation score result is “inactive”.

As to IMNCVLMKDIWYSVFNHR, the amyloid nucleation score was 2.44 ± 0.067.

On to IMNSPKGYTILWRGSLRGIQ, for which the amyloid nucleation score result is “inactive”.

For IMPRPIKSRLNKNFLWAVVC, the amyloid nucleation score entry is “inactive”.

On to IMRGITEGWEPLVVES, for which the amyloid nucleation score entry was “inactive”.

For IMRLHC, the amyloid nucleation score result is “inactive”.

For IMVCKWTSPTSTMPHDDLGC, the amyloid nucleation score entry was “inactive”.

On to IMVKLSIIIVYC, for which the amyloid nucleation score was 1.76 ± 0.083.

For IMVRGVRDS, the amyloid nucleation score result was “inactive”.
